Measured values as given in patent US12012446B2, “Epstein-Barr virus antibodies and uses thereof” (priority 2017, dated 2024).

Assays:
[1] = test system: EBV-eGFP infection of Raji cells; assay: EBV neutralization assay in Raji cells; assay type: cell-based, Epstein-Barr virus
Outline: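 Purified anti-gp350 mAbs were preincubated 2 h at 37° C with purified AGS-EBV-eGFP, then used to infect 5×10^5 Raji cells for 2 h. After washing, cells were cultured 48 h and eGFP+ cells counted by flow cytometry. % neutralization = (EBV alone − EBV+mAb)/EBV alone × 100; mAbs at 12.5, 25, 50 and 100 μg/ml.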

[2] = molecular target: T1, EBV gp350 stably expressed on CHO cells (Epstein-Barr virus, UniProt P03200); assay: Epitope mapping by competitive cell binding assay with biotinylated mAbs
T1 construct: stably co-transfected with full-length pCAGGS-gp350/220 and pCI-puro vector; expressed in transfected cells; host or cells: CHO cells
Outline: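 CHO cells stably expressing gp350 preincubated 2 h with unlabeled competitor mAbs (500, 250, 125, 67.5 μg/ml), then 2 h with 1 μg/ml biotinylated mAb, detected by anti-biotin AF488 flow cytometry. % inhibition = 100−(% positive cells with competitor/% without)×100; anti-KSHV gH/gL 54A1 as non-specific control.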

[3] = molecular target: T2, purified EBV gp350/220 (recombinant EBV gp350 ectodomain) (Epstein-Barr virus, UniProt P03200); assay: Indirect ELISA on recombinant EBV gp350 ectodomain; assay type: binding; conditions: purified antibodies 10 μg/ml
T2 construct: purified EBV gp350 ectodomain protein (AA 4-863); purchased Immune Technology Corporation
Outline: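 Plates coated overnight at 4 °C with recombinant gp350 ectodomain at 0.5 μg/ml, blocked with 2% BSA. Hybridoma supernatant or purified mAb (10 μg/ml) bound 2 h at room temperature, in triplicate. Detection by HRP anti-mouse IgG (1:2,000) with ABTS, SDS stop, A405.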

T1 sequence (P03200 whole entry): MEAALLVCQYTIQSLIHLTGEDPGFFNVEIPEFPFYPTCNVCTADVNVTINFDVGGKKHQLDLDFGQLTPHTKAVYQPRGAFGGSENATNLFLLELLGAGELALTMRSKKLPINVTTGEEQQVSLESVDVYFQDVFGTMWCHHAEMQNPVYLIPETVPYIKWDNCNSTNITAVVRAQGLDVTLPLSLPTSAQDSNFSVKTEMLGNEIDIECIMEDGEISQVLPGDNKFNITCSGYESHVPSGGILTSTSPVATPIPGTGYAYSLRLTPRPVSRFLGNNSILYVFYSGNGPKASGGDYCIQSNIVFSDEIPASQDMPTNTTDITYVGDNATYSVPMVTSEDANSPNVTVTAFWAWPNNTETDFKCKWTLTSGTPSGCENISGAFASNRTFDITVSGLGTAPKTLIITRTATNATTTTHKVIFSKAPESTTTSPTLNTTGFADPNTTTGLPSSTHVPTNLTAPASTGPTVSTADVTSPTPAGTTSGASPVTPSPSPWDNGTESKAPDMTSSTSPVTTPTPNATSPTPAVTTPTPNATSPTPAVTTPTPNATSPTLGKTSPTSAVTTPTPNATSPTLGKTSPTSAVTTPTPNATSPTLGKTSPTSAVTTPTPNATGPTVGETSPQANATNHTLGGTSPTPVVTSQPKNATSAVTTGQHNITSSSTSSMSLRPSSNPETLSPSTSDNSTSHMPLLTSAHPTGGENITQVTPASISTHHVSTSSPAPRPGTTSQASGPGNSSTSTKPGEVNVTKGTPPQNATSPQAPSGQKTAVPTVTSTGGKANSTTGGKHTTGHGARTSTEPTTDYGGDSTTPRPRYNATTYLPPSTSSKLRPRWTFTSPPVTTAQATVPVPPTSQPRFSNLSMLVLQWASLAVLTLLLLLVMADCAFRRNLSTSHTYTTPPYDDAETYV
T2 sequence (P03200 4-863): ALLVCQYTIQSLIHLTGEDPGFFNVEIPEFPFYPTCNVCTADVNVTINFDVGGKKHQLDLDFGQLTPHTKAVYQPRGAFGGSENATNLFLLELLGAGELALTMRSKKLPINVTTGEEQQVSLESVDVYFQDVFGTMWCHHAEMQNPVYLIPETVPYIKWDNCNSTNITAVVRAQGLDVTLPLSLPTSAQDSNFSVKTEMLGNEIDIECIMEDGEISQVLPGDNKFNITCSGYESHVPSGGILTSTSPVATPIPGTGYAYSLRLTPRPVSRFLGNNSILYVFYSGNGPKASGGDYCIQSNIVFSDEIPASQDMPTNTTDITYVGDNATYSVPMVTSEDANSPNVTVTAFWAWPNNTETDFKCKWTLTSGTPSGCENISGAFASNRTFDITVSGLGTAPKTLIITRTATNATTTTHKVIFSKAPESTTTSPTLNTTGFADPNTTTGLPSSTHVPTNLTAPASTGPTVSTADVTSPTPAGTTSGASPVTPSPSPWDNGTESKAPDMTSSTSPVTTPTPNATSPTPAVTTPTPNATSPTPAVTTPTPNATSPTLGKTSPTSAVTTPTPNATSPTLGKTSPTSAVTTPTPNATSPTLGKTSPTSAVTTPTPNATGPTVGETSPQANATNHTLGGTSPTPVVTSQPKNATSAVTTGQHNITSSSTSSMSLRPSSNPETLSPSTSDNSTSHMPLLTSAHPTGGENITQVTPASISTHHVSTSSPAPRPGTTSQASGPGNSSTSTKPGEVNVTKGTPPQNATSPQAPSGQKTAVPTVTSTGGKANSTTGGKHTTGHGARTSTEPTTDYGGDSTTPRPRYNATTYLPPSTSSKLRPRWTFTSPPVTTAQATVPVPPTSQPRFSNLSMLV

B1: HB20: murine anti-EBV gp350 mAb, IgG2a κ; SEQ ID NO: 128 / 129; neutralizing (antibody, V domains shown)
VH: ELVKPGASVKLSCKASGYTFTSYWIQWVKQRPGQGLEWIGEINPTNGHTNYNEKFKTKATLTVDKSSSTAYMRLSSLTSEDSAVYYCARNLYYYGRPDYWGQGTSVTVSSAKTTAPSVYPLAPVCGDTTGSSVTLG
VL: SSLSASLGDRVTISCRASQDIGNYLNWYQQKPDGTVKLLIYYTSRLHSGVPSRFSGSGSGTDYSLTISNLEQEDIATYFCQQGNALPPTFGGGTKLEIKRADAAPTV
modifications: heavy chain mAb HB20; light chain mAb HB20
notes: murine anti-EBV gp350 mAb, IgG2a κ; neutralizing
[1]; as stated in Example 8
  EBV neutralization, summary statement: one of the best nAb
[1]; protein G and size-exclusion chromatography-purified mAbs, 12.5-100 μg/ml
  blocking of EBV infection of Raji cells (in words): blocked EBV infection in a dose-dependent manner
[1]; spin-column purified mAbs, 12.5, 25, 50 and 100 μg/ml
  neutralization of EBV in Raji cells (in words): failed to neutralize EBV infection
[2]; biotinylated antibodies
  competitive binding versus m72A1 and h72A1 (in words): only partial binding to the overlapping targets
[2]; biotinylated m72A1 1 μg/ml, unlabeled mAbs 500-67.5 μg/ml
  antigen binding competition with biotinylated m72A1 (in words): Antigen binding competition was observed
[3]
  ELISA binding to purified EBV gp350/220: +
